# According to patent publication US20240263193A1 (published 2024):
# T1: CP5-46-4D5E
# T1 peptide: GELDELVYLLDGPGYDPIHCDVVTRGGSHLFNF
# How the values were obtained:
# CP5-46-4D5E = biological target: T1, CP5-46-4D5E; assay: cell-based or functional assay
# EGFP(R96M)-AlfaTag = assay: cell-based or functional assay
Binder,"fold change of the grazoprevir treated iADAR compared to DMSO treated, unmutated Pep-NS3 system, 4xUAG MS2 reporter, HEK293FT, flow cytometry (intramolecular pair) (CP5-46-4D5E) [fold]","ratio of mNeonGreen to mCherry (mNG/mCh), 2 µM grazoprevir against no drug, HEK cells, microscopy (intramolecular pair) (CP5-46-4D5E) [fold]","median relative fluorescence of the 4xUAG-MS2 reporter, A-1331852 plus EGFP(R96M)-AlfaTag against A-1331852 alone, HEK293FT, flow cytometry (EGFP(R96M)-AlfaTag) [fold]"
NS4A/NS3 (Genotype 1B) (enzyme) GSVVIVGRIILSGSGSITAYSQQTRGLLGCIITSLTGRDKNQVEGEVQVVSTATQSFLATCVNGVCWTVYHGAGSKTLAGPKGPITQMYTNVDQDLVGWQAPPGARSLTPCTCGSSDLYLVTRHADVIPVRRRGDSRGSLLSPRPVSYLKGSSGGPLLCPSGHAVGIFRAAVCTRGVAKAVDFVPVESMETTMRS,~31,~18,
ALFA-Bcl dual input iADAR (other) MASNFTQFVLVDNGGTGDVTVAPSNFANGIAEWISSNSRSQAYKVTCSVRQSSAQNRKYTIKVEVPKGAWRSYLNMELTIPIFATNSDCELIVKAMQGLLKDGNPIPSAIAANSGIYGGSGSGAGSGSPAGGGAPGSGGGSTGAPPNLWAAQRYGRELRRMSDEFVDSFKKASQLHLPQVLADAVSRLVLGKFGDLTDNFSSPHARRKVLAGVVMTTGTDVKDAKVISVSTGTKCINGEYMSDRGLALNDCHAEIISRRSLLRFLYTQLELYLNNKDDQKRSIFQKSERGGFRLKENVQFHLYISTSPCGDARIFSPHEPILEEPAASGSGPGRLEEELRRRLSPGTGDRHPNRKARGQLRTKIESGQGTIPVRSNASIQTWDGVLQGERLLTMSCSDKIARWNVVGIQGSLLSIFVEPIYFSSIILGSLYHGDHLSRAMYQRISNIEDLPPLYTLNKPLLSGISNAEARQPGKAPNFSVNWTVGDSAIEVINATTGKDELGRASRLCKHALYCRWMRVHGKVPSHLLRSKITKPNVYHESKLAAKEYQAAKARLFTAFIKAGLGAWVEKPTEQDQYSLTGSGGTAEVQLQESGGGLVQPGGSLRLSCTASGVTISALNAMAMGWYRQAPGERRVMVAAVSERGNAMYRESVQGRFTVTRDFTNKMVSLQMDNLKPEDTAVYYCHVLEDRVDSFHDYWGQGTQVTVSSGAGSGASSNRELVVDFLSYKLSQKGYSWSQFSDVEENRTEAPEGTESEMETPSAINGNPSWHLADSPAVNGATGHSSSLDAREVIPMAAVKQALREAGDEFELRYRRAFSDLTSQLHITPGTAYQSFEQVVNELFRDGVNWGRIVAFFSFGGALCVESVDKEMQVLVSRIAAWMATYLNDHLEPWIQENGGWDTFVELYGNNGSSELIKENMHMKLYMEGTVDNHHFKCTSEGEGKPYEGTQTMRIKVVEGGPLPFAFDILATSFLYGSKTFINHTQGIPDFFKQSFPEGFTWERVTTYEDGGVLTATQDTSLQDGCLIYNVKIRGVNFTSNGPVMQKKTLGWEAFTETLYPADGGLEGRNDMALKLVGGSHLIANIKTTYRSKKPAKNLKMPGVYYVDYRLERIKEANNETYVEQHEVAVARYCDLPSKLGHKLN,,,~110
